# Measurements published in patent publication US20230227557A1 (PROMAB BIOTECHNOLOGIES, published 2023).
# B1: mouse monoclonal anti-human PD-L1 antibody (hybridoma clone 7D2A10) (antibody, V domains shown)
# VH: QIQLVQSGPELKNPGETVKISCKASGYTFTNYGMNWVKQAPGKGLKWMGWINTHTGEPTYADDFKGRFAFSSETSASSAYLQINNLKNDDMATYFCAKGTHREEIPAWFAYWGQGTLVTVSA
# VL: DVLMTQTPLSLPVSLGDQASISCRSSQSIVHSNGNTYLEWYLQKPGQSPELLIYKVSNLFSGVPDRFSGSGSGTDFTLKISRVEAEDLGVYYCFQGSHVPPTFGAGTKLELKR
# notes: also called Promab anti-PD-L1; PD-L1 monoclonal antibody
# Biological target: T1, PD-L1 on PD-L1-positive cancer cells and tissues (human, UniProt Q9NZQ7 19-290)
# T1 construct: whole, on cells; also called PD-L1 tumor antigen; CD274
# Assay: flow cytometry on cancer cell lines
# T1 sequence (Q9NZQ7 19-290): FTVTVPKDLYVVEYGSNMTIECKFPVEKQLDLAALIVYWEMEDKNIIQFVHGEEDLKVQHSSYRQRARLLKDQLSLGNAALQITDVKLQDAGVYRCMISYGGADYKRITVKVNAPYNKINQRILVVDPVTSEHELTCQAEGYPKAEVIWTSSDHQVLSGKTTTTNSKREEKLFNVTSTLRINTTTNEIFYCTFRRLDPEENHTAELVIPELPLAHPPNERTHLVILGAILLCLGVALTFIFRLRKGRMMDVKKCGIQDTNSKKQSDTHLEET
binder,measurement,value
B1,binding result,binds
